Measurements as given in patent publication US20230059489A1 (Pfizer, published 2023).
Numbering of substitutions follows the chain as printed.

T1: mouse FLT3 (mFlt3) (mouse (printed as mFlt3), UniProt Q00342 28-544, limits assumed)
T1 construct: Construct not described
T1 sequence (looked up): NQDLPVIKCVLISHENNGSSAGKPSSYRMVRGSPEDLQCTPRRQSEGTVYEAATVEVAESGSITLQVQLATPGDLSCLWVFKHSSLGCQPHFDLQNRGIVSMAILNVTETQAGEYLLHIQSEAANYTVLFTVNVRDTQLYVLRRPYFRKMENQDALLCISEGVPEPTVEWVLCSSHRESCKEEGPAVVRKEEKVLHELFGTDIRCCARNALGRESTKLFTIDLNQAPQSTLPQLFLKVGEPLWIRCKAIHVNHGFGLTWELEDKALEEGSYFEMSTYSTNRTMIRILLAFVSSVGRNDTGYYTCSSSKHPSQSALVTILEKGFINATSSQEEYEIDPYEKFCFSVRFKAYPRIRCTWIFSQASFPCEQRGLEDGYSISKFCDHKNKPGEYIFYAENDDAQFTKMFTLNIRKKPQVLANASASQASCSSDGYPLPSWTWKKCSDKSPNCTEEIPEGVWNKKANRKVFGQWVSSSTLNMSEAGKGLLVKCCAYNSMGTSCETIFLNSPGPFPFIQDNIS

T2: human FLT3 (hFLT3) (human, UniProt P36888 27-543)
T2 construct: also called huFlt3; Fms-Like Tyrosine Kinase 3
T2 sequence (looked up): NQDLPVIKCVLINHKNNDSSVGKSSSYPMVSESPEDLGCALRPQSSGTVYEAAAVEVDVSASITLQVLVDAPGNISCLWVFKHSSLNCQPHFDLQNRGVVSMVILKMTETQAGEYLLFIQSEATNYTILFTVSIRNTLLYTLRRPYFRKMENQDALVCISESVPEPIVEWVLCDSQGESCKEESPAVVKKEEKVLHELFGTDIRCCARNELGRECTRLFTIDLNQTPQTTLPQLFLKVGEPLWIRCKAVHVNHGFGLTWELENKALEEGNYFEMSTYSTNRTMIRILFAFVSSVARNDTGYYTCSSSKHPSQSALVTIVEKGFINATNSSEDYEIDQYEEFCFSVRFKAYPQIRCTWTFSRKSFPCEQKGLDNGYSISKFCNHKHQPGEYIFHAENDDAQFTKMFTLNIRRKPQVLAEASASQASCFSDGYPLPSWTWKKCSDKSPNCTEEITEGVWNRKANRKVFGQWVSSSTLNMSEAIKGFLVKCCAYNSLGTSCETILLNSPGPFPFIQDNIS

B1: P4C7 (IgG format) (antibody, V domains shown)
VH: QVQLVQSGAEVKKPGSSVKVSCKASGGTFSSYTISWVRQAPGQGLEWMGGIIPAFGIANYAQKFQGRVTITADKSTSTAYMELSSLRSEDTAVYYCAKGGSYSLDYFDIWGQGTLVTVSS
VL: EIVLTQSPGTLSLSPGERATLSCRASQYVSASLLAWYQQKPGQAPRLLIYGASTRATGIPDRFSGSGSGTDFTLTISRLEPEDFAVYYCQQYARSSTFGQGTKVEIK
notes: IgG format, captured by anti-human Fc
B2: P4F6 (IgG format) (antibody, V domains shown)
VH: QVQLVQSGAEVKKPGSSVKVSCKASGGTFGSYGISWVRQAPGQGLEWMGGIIPIFGTVTYAQKFQGRVTITADESTRTAYMELSSLRSEDTAVYYCARDSWSGATGASDTWGQGTLVTVSS
VL: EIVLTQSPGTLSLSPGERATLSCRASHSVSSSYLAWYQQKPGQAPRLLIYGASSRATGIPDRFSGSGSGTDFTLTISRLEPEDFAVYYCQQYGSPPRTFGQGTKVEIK
notes: as for B1
B3: P4H11 (IgG format) (antibody, V domains shown)
VH: EVQLLESGGGLVQPGGSLRLSCAASGFTFSSYAMNWVRQAPGKGLEWVSSISGGGRSTYYADSVKGRFTISRDNSKNTLYLQMNSLRAEDTAVYYCARDLSPSDVGWGYGFDIWGQGTLVTVSS
VL: B1 VL with Y28S, A31N, S32T, L33Y, G51D, A52T, T54S, A93G, R94S, S96L
notes: as for B1
B4: P12B6 (IgG format) (antibody, V domains shown)
VH: QVQLVQSGAEVKKPGSSVKVSCKASGGTFMSYAISWVRQAPGQGLEWMGGIIPIFGIANYAQKFQGRVTITADKSTSTAYMELSSLRSEDTAVYYCARETLIYPIPFELWGQGTLVTVSS
VL: EIVLTQSPGTLSLSPGERATLSCRASQIVSSSYLAWYQQKPGQAPRLLIYGASSRASGIPDRFSGSGSGTDFTLTISRLEPEDFAVYYCQQYGGSPYTFGQGTKVEIK
notes: as for B1
B5: P3E10 (IgG format) (antibody, V domains shown)
VH: QVQLVQSGAEVKKPGSSVKVSCKASGGTFSSYAIQWVRQAPGQGLEWMGGIVGSWGLANYAQKFQGRVTITTDKSTSTAYMELSSLRSEDTAVYYCATSAFGELASWGQGTLVTVSS
VL: B4 VL with I28S, S30P, Y33Q, G51D, S57T, G94S, Y97L
notes: as for B1
B6: P1B4 (IgG format) (antibody, V domains shown)
VH: QVQLVQSGAEVKKPGSSVKVSCKASGGVFSRYALSWVRQAPGQGLEWMGGIIPMLGFANYAQKFQGRVTITADESTSTAYMELSSLRSEDTAVYYCATLDFGALDYWGQGTLVTVSS
VL: B4 VL with I28S, S30P, S31N, S32E, Y33Q, G51D, S57T, G94S, S95P, Y97L
notes: as for B1
B7: P8B6 (IgG format) (antibody, V domains shown)
VH: QVQLVQSGAEVKKPGSSVKVSCKASGGTFSSYAVSWVRQAPGQGLEWMGGIIPIFGIANYAQKFQGRVTITADTSTSTAYMELSSLRSEDTAVYYCAIEGIGGDLRYDGYDAWGQGTLVTVSS
VL: B4 VL with I28S, S31H, S54F, S57A, G94S, S95D
notes: as for B1
B8: P1B11 (IgG format) (antibody, V domains shown)
VH: QVQLVQSGAEVKKPGSSVKVSCKASGGTFRSFDISWVRQAPGQGLEWMGRIIPILGYANYAQKFQGRVTITADESTSTAYMELSSLRSEDTAVYYCASDLGAPWAGYPFDPWGQGTLVTVSS
VL: B4 VL with I28S, Y33E, G51D, S57T, G93D, G94S, Y97L
notes: as for B1
B9: P1A5 (IgG format) (antibody, V domains shown)
VH: B6 VH
VL: EIVLTQSPGTLSLSPGERATLSCRASQAVDSSDLAWYQQKPGQAPRLLIYDAYTRPSGIPDRFSGSGSGTDFTLTISRLEPEDFAVYYCQQYGSSPLTFGGGTKLEIK
notes: IgG format, captured by anti-human Fc; the entry printed as P1A5 is used
B10: P3A1 (IgG format) (antibody, V domains shown)
VH: QVQLVQSGAEVKKPGSSVKVSCKASGGTFSSYDISWVRQAPGQGLEWMGGIIPVSGRANYAQKFQGRVTITTDKSTSTAYMELSSLRSEDTAVYYCARVRPTYWPLDYWGQGTLVTVSS
VL: not shown
notes: as for B1
B11: P5F7 (IgG format) (antibody, V domains shown)
VH: B3 VH
VL: EIVLTQSPATLSLSPGERATLSCRASQSVSSNLAWYQQKPGQAPRLLIYDTFTRATGIPARFSGSGSGTDFTLTISRLEPEDFAVYYCQQYGSSPPTFGQGTRLEIK
notes: IgG format, captured by anti-human Fc; the VLs differ at the N-terminus; the first entry is used
B12: P15F7 (IgG format) (antibody, V domains shown)
VH: EVQLLESGGGLVQPGGSLRLSCAASGFTFNNYAMNWVRQAPGKGLEWVSVISGSGGTTYYADSVKGRFTISRDNSKNTLYLQMNSLRAEDTAVYYCASGIWDLRYWGQGTLVTVSS
VL: DIQMTQSPSSLSASVGDRVTITCRASQSISTYLNWYQQKPGKAPKLLIYAASNLQSGVPSRFSGSGSGTDFTLTISSLQPEDFATYYCQQSYSIPLTFGQGTKVEIK
notes: as for B1
B13: P14G2 (IgG format) (antibody, V domains shown)
VH: B12 VH with N30S, A33V, V50A, G56A, A97V, I100L, D102A, L103G, R104G, Y105I
VL: B12 VL with T31S, A50D, N53D, S56R, S93N, I94T, L96W
notes: as for B1
B14: P9F1 (IgG format) (antibody, V domains shown)
VH: EVQLLESGGGLVQPGGSLRLSCAASGFIFSSFAMSWVRQAPGKGLEWVSDISGSGASTYYADSVKGRFTISRDNSKNTLYLQMNSLRAEDTAVYYCASASGGSGSYWPYMDPWGQGTLVTVSS
VL: QSVLTQPPSASGTPGQRVTISCSGSGSNIGSNYVYWYQQLPGTAPKLLIYRNNQRPSGVPDRFSGSKSGTSASLAISGLRSEDEADYYCAAWDGSLSRPVFGTGTKLTVL
notes: as for B1

molecular target: T1, mouse FLT3 (mFlt3); test: SPR, Table 6, IgG format, mFlt3 column; set-up for mFlt3 not described

Row | Binder | Kd [nM]
1 | B1 | 402
2 | B2 | 36.1

molecular target: T2, human FLT3 (hFLT3); test: SPR (Biacore T200), 37 C; IgG captured on anti-human Fc, hFLT3 as analyte
Method: All experiments were performed on a Biacore T200 surface Plasmon resonance biosensor (GE Lifesciences, Piscataway N.J.).
The sensor chip preparation was performed at 25° C. with a running buffer of 10 mM HEPES, 150 mM NaCl, 0.05% (v/v) Tween-20, pH 7.4. An anti-human Fc sensor chip was made by activating all flow cells of a Biacore CM4 sensor chip with a 1:1 (v/v) mixture of 400 mM EDC and 100 mM NHS for 7 minutes, at a flow rate of 10 μL/min. An anti-human Fc reagent (Goat Anti-Human IgG Fc, Southern Biotech Catalog #2081-01) was diluted to 30 μg/mL in 10 mM Sodium Acetate pH 4.5 and injected on all flow cells for 7 minutes at 20 μL/min. All flow cells were blocked with 100 mM ethylenediamine in 150 mM Borate buffer pH 8.5 for 7 minutes at 10 μL/min.
The experiments were performed at 37° C. using a running buffer of 10 mM HEPES, 150 mM NaCl, 0.05% (v/v) Tween-20, pH 7.4, 1 mg/mL BSA. FLT3 antibodies were captured from undiluted supernatants onto downstream flow cells (flow cells 2, 3 and 4) at a flow rate of 10 μL/min for 1 minute. Different antibodies were captured on each flow cell. Flow cell 1 was used as a reference surface. Following capture of FLT3 antibodies, analyte (buffer, hFLT3) was injected at 30 μL/min on all flow cells for two minutes. After the analyte injection, dissociation was monitored for 10 minutes followed by regeneration of all flow cells with three 1-minute injections of 75 mM Phosphoric Acid. For each captured FLT3 antibody, the following analyte injections were performed: buffer, 11 nM hFLT3, 33 nM hFLT3, 100 nM hFLT3 and 300 nM hFLT3. Buffer cycles were collected for each captured FLT3 antibody for double-referencing purposes (double-referencing as described in Myszka, D. G. Improving biosensor analysis. J. Mol. Recognit. 12, 279-284 (1999)). The double-referenced sensorgrams were fit globally to a simple 1:1 Langmuir with mass transport binding model.

Row | Binder | Kd [nM] | koff [s⁻¹] | kon [M⁻¹ s⁻¹] | t1/2 [min]
3 | B1 | 7.7 | 0.0012 | 160000 | 9.3
4 | B3 | 233 | 0.0144 | 61800 | 1
5 | B4 | 84 | 0.009 | 110000 | 1.3
6 | B5 | 106 | 0.019 | 180000 | 0.6
7 | B6 | 32 | 0.0058 | 180000 | 2
8 | B7 | 2.5 | 0.00023 | 93000 | 51
9 | B8 | 45 | 0.0055 | 120000 | 2.1
10 | B9 | 0.19 | 0.000347 | 1.78e+06 | 33
11 | B10 | 64 | 0.006 | 95000 | 1.9
12 | B11 | 0.24 | 0.000152 | 636000 | 76
13 | B12 | 38 | 0.0055 | 140000 | 2.1
14 | B13 | 8 | 0.0011 | 140000 | 10.7
15 | B2 | 25 | 0.0035 | 140000 | 3.3
16 | B14 | 127 | 0.023 | 180000 | 0.5
